{
  "source": "paper PMC10273302",
  "about": "(Science (New York, N.Y.), 2023)",
  "binders": {"B1": {"name": "flu_c357 (antibody, V domains shown)", "VH": "EVQLVQSGAEVKKPGESLKISCKTSGFKFTSHWIAWVRQMPGKGLEWMGIIYPGDSDTRYNPSFEGQVTVSADKSINTAYLQWSSLKASDTAMYYCARLPHRESGNVSTTWGWFDPWGQGTLVTISS", "VL": "DIVLTQSPDSLAVSLGERATINCKSSHNVLYISNSKNYLAWYQQKPGQPPKLLIYWASTRESGVPDRFSGSGSGTDFTLTISSLQPEDVAVYYCQQYFSTPYTFGQGTRLEIK", "notes": "recombinant human IgG"}},
  "molecular_target": "T1, influenza A H3 hemagglutinin ectodomain trimer, A/Aichi/02/1968 (Influenza A virus A/Aichi/2/1968 (H3N2, …, UniProt P03437))",
  "T1 construct": "source: Expi293, transient transfection, purified (Ni-NTA, SEC)",
  "test": "ELISA",
  "conditions": "both partners purified",
  "data": [
    {"binder": "B1", "values": [
      {"measurement": "binding result", "result": "binds"}
    ]}
  ]
}
